Test system: T1, GeoCas9 (Geobacillus stearothermophilus)
T1 sequence: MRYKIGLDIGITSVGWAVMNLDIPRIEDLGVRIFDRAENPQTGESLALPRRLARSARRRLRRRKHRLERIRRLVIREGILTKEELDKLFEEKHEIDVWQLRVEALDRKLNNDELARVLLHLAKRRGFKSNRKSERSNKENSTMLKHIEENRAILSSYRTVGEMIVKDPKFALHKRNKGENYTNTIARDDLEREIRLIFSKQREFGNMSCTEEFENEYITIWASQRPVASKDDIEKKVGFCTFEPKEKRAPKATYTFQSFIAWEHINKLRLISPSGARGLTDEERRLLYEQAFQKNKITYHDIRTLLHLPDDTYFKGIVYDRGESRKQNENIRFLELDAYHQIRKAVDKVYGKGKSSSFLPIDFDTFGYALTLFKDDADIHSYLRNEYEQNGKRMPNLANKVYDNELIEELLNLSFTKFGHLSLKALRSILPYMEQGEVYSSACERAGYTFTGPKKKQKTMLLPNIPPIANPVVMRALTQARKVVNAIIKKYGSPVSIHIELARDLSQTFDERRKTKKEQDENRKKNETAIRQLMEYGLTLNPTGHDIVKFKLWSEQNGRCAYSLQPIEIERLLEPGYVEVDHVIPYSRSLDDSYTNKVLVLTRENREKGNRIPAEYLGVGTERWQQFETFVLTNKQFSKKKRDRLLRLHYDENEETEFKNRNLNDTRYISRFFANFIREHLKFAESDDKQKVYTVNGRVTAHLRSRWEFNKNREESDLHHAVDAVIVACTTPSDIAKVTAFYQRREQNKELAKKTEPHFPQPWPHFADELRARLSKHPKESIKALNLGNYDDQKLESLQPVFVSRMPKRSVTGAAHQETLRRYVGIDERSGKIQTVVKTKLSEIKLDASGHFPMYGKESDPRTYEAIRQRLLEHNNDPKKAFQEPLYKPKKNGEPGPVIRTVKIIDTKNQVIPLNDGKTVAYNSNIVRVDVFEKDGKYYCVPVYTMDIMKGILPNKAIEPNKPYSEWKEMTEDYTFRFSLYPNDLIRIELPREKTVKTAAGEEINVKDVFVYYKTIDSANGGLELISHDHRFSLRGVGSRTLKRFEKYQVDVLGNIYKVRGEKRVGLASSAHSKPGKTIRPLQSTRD
Test: cleavage_in_vitro
Settings: 21-22 nt spacer cleaves more than 5-fold faster than 20 nt; 37 C; exact substrate PAM not given

## GeoCas9 sgRNA with 20 nt spacer ; radiolabeled target DNA with CRAA PAM
  cleavage rate fold increase: > 5 fold
